The domain aggregation screens of Martell et al. (2025)

Test: soluble fraction after stress (log2 fold change); higher = more stays soluble; pooled small domains, quantitative proteomics
Details: stress: 75 degC
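Also: 20 min heating vs room temperature control held 20 min.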

Sequence | soluble fraction (log2)
HMPLPFSPVMFVGTKSGAQTDLDGNYKIETYYSSDSLKVVVLGYAPLAKKVKQGTTSVVNFELSAAS | 0.161
HMPLPLYVQIKESLRGQIFDGTYGEHERLPSENDLMSSFGVSRITVRQALSDLEKEELIFKVPGKGAFVSR | -1.5
HMPLQKNRPKIKPQKVVFLFSVEWMWSPAHNRIDSYFINIKPSRYYLWNSFFDRHSFSDYWDFIGYTEN | 0.1
HMPLSDAEKAAAIATQAKERALKLSPEMISYLLRHASRDMRTLSMLVVALDQYTLEQKRPVTLPLLRELLS | -0.0668
HMPMIQHFHRMISAALGISEKQIVQTLGLLNDGATIPFISRYRKEVTGGLDEVQIESIKTHYEKLNEIAK | -2.33
HMPMPQDEVSYALGLSIGQNFKASGIKAITSEDFIAGLQDALAEREPQMTTERAREVINQLFMRLQQEESE | 0.323
HMPMTDYQLIRSNRRTIALQITRDARVVVRAPLYASEADIRRFVESHRAWIESHLDRQRARTD | -3.25
HMPMTRILFLPDDRTILQFDSAEPAEDLVSAVNAGRWLPPEPYRSGFGLGLPENRLRASRQGALVVVMLS | -0.984
HMPNDYRKKLEILAKEKGAEYLHTMLTEVDPKSALQIHTNNIKRTIRALEFYHQTGMKISEHNEAEREK | -0.204
HMPNIHVVFAEEWTDRRLDKVLSEYFDGYSRSFIKKLFDDGLILVNSKAVKPSYKVRAGDMIDISVPDPV | -1.83
HMPNPALESARPAFEAFLSRFSDGEAMRGPAWGLWSLLHRKGNAPTASHAAGRDGMGVLAFLRHWQWG | -0.452
HMPPDLSEAIQKRIEGKTDEALEILRKLYNEYPESTEIITMLGRTLLDAEEYALAAFRLEQALDLGG | -0.699
HMPPDVIENIFKNDANKIIDLYNMAPRGQKETIVEMIKNKRLQGINVDANVLVKLGELTGIDFVN | -0.087
HMPPLVLRGVVMGADGARLAILAQGEAGAALGIGETWKEYTLRSVTDQSATLEHRSGTITLTR | -0.701
HMPPNPELGKKLLKLRKEFKMTQDDVANILGMSRTSFSKYENGIANPPLQVMRKLASIYNVGLEYLI | -1.84
HMPQEMIEILATPNGWLRVRQGPGTNYPEITKVNSGEEFPLLEEKDSWFKIRIEEGQEGWISSQYAQKEE | 0.00978
HMPQGFEDLTEREREVLTLIAEGRTNQEIADALVISIKTVNRHRENIMAKLNLHSRVELVRYAIAQGLI | -2.61
HMPQNLQDQLFELILSRYPRRADAVEDLANILHLGKDPVYRRLRGDTFLSPLEISTLALHFRISLDALIV | -2.5
HMPQPEIEIAAVVPYSAGALLSRIHDDGELLAPVEYRGEGVFVHARVPADIEAAMRRGGMLSPAET | 0.0386

Sequence | soluble fraction (log2)
HMPQQVFKREDLQKWGLTGQADSRKRREKLGQLLGIGYGNGKQLIHRLNMFQVDRATFEQAIKQINQEEDH | -0.539
HMPQTNIYPNPAFDKLFVSNLENETNFKIMDLFGRTIINSKTKGEISISELKSGIYIIEINNFRQKFVK | -2.64
HMPQVALAIDEMKRELASPDIVKTLLATTFKGLSEVNMRQAMLDGMIQGHTIADFFKKDVYAIPFGSGYSL | 0.049
HMPRPFPELTTREHDILALIARGWSNGRIADHLSLSGKTVSNYVSNILGKLQVTARAEAAERAREAGMGQ | -0.379
HMPRRSYLDARKKLLGMLNSPDFNSGDQIPAERELSEVLGISRVTVRKIITELIDEGVLERRGNQGTWLVD | -1.01
HMPRSREVHVEPGMVLEDVTTGFVGAVIRTEKSAGIYVIELEDRRGRRRSFPLGGGFWLDGRPIIALPPLP | -1.81
HMPSLAVYPNPVKDILNIATDKPVHSIRIYNVYGSEVLRAADTNRIDVSHLPAGVYMVSADGKVTRIIK | -0.858
HMPSLGGLLALLKRNRKPDAMEALDRLISKEDRPETAEALENIREKVRNMQMREAEGLLLALMEP | -0.509
HMPSLILADEPTGNLDSRNSSEVIALLKNASKRYAQTIIMITHNRSIAQSADRVLQVSDGVLTDMG | 0.345
HMPSLNDRPDDVLYLFSYFLQSFSHRQVSLPKILKKALIQHDWWGNIRELHSVALRYYIFGDTLNGAYDSL | -0.99
HMPSLSREREAAILEMIERRPSTAEDVASGLGLAVNEVIKLLDGTALRGSVETFQSGEEIYYTRKR | 0.472
HMPSNVKIPDVTGKTVAQARSAIEAAGLKVGKEKDEYSDSAKKDSVIRTNPQAGTQRREGSTVDLIVS | 0.175
HMPSPFYIMDEVEAALDDTNLGRLITLFEELRDSSQLIVITHQKKTMEIADALYGVTMRGDGITTVVSQRL | 0.151
HMPSQEQSDKNAAMAFLPVIVKNALNGKGLKISDDWKAAVNTALAQYPLVNKFFNADSPEVTELVMGL | -0.0584
HMPSQLPLAFARRHGVLLRGFSNGLAQLTVRPEVSTLSLAETRRHLGVPLALEKVTTERFDQLLREAYEA | -0.9
HMPSYYKELQNYSPENPVVKKRKVHPDVVNAIKYLAEITDGNPMLIKAYAQMILAHVFTTMPLIDKSV | -0.00519
HMPTEAIVLQQIQIRQSPSGNSKSLQQILPGAKIKITSESSVKGWKQVSLDGGQKGWIPTAAIGL | -0.499
HMPTELVYTVPASAEGLRLDHFLVQHVPHMTRALATELTGAGGVRVNGRRAKKGDRLPSGAEVRLER | 0.0576
HMPTFAEKLHEVRKARDFTQDQLAKEMNVSRQTISHWENGRAVPDIDTIKHLSQVLDYNFLV | 0.0869
